Experimental data from publication doi:10.1101/2025.05.24.655746 (bioRxiv, 2025).
Numbering of substitutions follows the chain as printed.

T1: full-length RAD51AP1 variant in which both Site-N and Site-C are mutated (NC) (UniProt Q96B01 1-352)
T1 chain: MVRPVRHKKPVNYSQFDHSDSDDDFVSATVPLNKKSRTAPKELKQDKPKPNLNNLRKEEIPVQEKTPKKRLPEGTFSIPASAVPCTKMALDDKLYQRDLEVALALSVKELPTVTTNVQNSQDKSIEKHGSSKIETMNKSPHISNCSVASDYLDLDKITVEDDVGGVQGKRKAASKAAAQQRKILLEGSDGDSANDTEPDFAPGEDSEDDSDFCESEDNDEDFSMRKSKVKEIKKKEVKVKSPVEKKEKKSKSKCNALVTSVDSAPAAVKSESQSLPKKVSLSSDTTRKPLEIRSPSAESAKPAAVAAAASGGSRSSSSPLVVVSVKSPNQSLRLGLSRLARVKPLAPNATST

T2: full-length RAD51AP1 (RAD51 Associated Protein 1), wild type (UniProt Q96B01 1-352)
T2 sequence: T1 chain with A300K, A303K, A304W, A306P, A307P, A346H

T3: full-length RAD51AP1-H346A (Site-C mutant) (UniProt Q96B01 1-352, H346A)
T3 sequence: T1 chain with A300K, A303K, A304W, A306P, A307P

B1: RAD51 recombinase (natural protein)
chain: MAMQMQLEANADTSVEEESFGPQPISRLEQCGINANDVKKLEEAGFHTVEAVAYAPKKELINIKGISEAKADKILAEAAKLVPMGFTTATEFHQRRSEIIQITTGSKELDKLLQGGIETGSITEMFGEFRTGKTQICHTLAVTCQLPIDRGGGEGKAMYIDTEGTFRPERLLAVAERYGLSGSDVLDNVAYARAFNTDHQTQLLYQASAMMVESRYALLIVDSATALYRTDYSGRGELSARQMHLARFLRMLLRLADEFGVAVVITNQVVAQVDGAAMFAADPKKPIGGNIIAHASTTRLYLRKGRGETRICKIYDSPCLPEAEAMFAINADGVGDAKD
B2: full-length RAD51AP1 Site-N mutant (K300, K303, W304, P306, P307 to alanine) (natural protein)
chain: T1 chain with A346H

How the values were obtained:
[1] = target: T1, full-length RAD51AP1 variant in which …; test: BLI
[2] = target: T2, full-length RAD51AP1 (RAD51 Associated …); test: BLI
[3] = target: T3, full-length RAD51AP1-H346A (Site-C …); test: BLI
RAD51 recombinase = target: B1; test: pull-down

Binder | fold reduction in affinity against wild type [1] [fold] | Kd [2] [nM] | fold decrease in binding affinity against wild type [3] [fold] | binding result (RAD51 recombinase)
B1 | ~4 | ~600 | ~2.5 | 
B2 |  |  |  | binds
